Results from US6319685A (Unigene Laboratories, Inc., priority 1987, dated 2001).
Residues, ends and D or L forms follow the SMILES beside them.

Key:
alpha-amidating enzyme [1] = target: T1, alpha-amidating enzyme (Rattus norvegicus, UniProt P14925); assay: co-factor requirement of alpha-amidating enzyme for maximal activity; type: biochemical; conditions: in vitro, with peptide substrate, oxygen and L-ascorbic acid
T1 sequence (P14925 36-976): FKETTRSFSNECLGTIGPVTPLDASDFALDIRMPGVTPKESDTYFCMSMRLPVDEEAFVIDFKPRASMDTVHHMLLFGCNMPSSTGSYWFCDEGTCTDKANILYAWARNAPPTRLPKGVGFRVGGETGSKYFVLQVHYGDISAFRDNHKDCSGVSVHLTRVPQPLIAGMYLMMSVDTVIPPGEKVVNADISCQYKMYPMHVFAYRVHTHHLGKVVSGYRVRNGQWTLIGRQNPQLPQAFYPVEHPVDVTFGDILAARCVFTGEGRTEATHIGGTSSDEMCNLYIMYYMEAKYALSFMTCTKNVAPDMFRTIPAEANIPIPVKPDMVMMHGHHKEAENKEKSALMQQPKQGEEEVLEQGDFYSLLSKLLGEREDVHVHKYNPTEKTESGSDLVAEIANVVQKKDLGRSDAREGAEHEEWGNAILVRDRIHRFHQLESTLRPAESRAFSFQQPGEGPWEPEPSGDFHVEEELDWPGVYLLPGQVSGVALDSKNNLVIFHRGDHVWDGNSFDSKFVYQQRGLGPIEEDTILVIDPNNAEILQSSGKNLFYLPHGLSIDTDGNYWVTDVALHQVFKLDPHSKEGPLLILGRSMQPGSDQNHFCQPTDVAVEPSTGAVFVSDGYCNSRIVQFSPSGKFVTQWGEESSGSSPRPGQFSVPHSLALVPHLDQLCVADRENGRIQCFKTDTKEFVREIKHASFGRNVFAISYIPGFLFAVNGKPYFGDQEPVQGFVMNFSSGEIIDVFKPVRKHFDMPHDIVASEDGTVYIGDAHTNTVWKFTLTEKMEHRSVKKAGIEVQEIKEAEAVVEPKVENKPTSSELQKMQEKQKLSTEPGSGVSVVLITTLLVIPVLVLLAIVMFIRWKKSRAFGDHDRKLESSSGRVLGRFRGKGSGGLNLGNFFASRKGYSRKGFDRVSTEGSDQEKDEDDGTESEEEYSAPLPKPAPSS

alpha-amidating enzyme [2] = target: T1, alpha-amidating enzyme; assay: comparison of assay systems / kinetic analysis of amidation of dansyl-Tyr-Val-Gly, D-Tyr-Val-Gly and 125I-D-Tyr-Val-Gly; type: biochemical
Description: (§1) I. Monodansyl L-Tyr-Val-Gly
(§2) The concentration of enzyme used in all experiments was left constant except where noted.
(§3) The reaction mixture for the conversion of the monodansyl substrate contained:
(§4) 5 μl of 100 ug/mL bovine pancreatic catalase
(§5) 5 μl containing 2 nmoles of substrate
(§6) The samples were prepared in duplicate and incubated at 37° C. for 10, 20 and 30 minutes time periods. The enzymatic reaction was halted by the addition of 10 ul 500 mM EDTA. Substrate and product were separated by RP HPLC using an Hewlett Packard-1090 liquid chromatography system, and quantitation was achieved using a HP-3392 integrator.
(§7) D-Tyr-Val-Gly and D-Tyr-Val-NH2 were iodinated using iodobeads from Pierce Chemical Company. The radiolabeied substrate and product were used to calibrate a sulfyl-propyl cation-exchange column. ^125 I D-Tyr-Val-Gly was added to 650 uM D-Tyr-Val-Gly and used as the substrate. The reaction mixture for the conversion of monodansyl substrate contained:
(§8) Samples were incubated for 10, 20, 30 minutes at 37° C. The reaction was stopped by addition of 500 mM EDTA. […] The conversion of radiolabeled substrate to product was linear with respect to time.
The reaction conditions used for the amidation of D-Tyr-Val-Gly are identical to those described for the dansyl and iodinated substrates. Substrate concentration in the reaction mixture was 650 uM. Separation of substrate and product is achieved by gradient elution on RP-HPLC using a HP-1090 liquid chromatography system. The column effluents were monitored at 280 nm. The level of sensitivity for this assay is much lower than that for either dansyl or iodinated substrates.
Furthermore, a somewhat more rigorous kinetic analysis has also been employed to compare the dansyl-Tyr-Val-Gly (Applicants') assay to the D-Tyr-Val-Gly (prior art) assay.

[3] = substrate: CC(C)[C@H](NC(=O)[C@H](N)Cc1ccc(O)cc1)C(=O)NCC(=O)O; assay: as above; type: biochemical, rat; conditions: 37.0 °C
Description: as §1, §2, §3, §4, §5, §6, §7, §8
The reaction conditions used for the amidation of D-Tyr-Val-Gly are identical to those described for the dansyl and iodinated substrates. Substrate concentration in the reaction mixture was 650 uM. […] The column effluents were monitored at 280 nm. […]

[4] = specific alpha-amidating activity, conversion of Dansyl-D-Tyr-Val-Gly to Dansyl-D-Tyr-Val-CONH2; type: biochemical
Description: These and other objects will become apparent from a thorough reading of the present disclosure. […] All specific activity units set forth herein are based upon the conversion of Dansyl-D-Try-Val-Gly-COOH to Dansyl-D-Tyr-Val-CONH2. One mU is defined as the amount of activity needed to convert one nanomole (nmole) of Dansyl-D-Tyr-Val-Gly-COOH to one nmole of Dansyl-D-Tyr-Val-CONH2 per minute at 37° C. and pH 7.0 in the presence of ascorbate ions at a concentration of 3 mM (based on total reaction mixture including enzyme, substrate, co-factors, etc.), molecular oxygen in a molar excess over substrate and a concentration of cupric ions effective to maximize activity (usually about 2 μM depending on the state of purity of the enzyme).
Each purification step can be monitored for both protein content and the level of alpha-amidation activity. This information is used to calculate the specific activity of the enzyme which serves as an indicator of the relative purity of the enzyme.
Sephacryl S-300 (Pharmacia) was equilibrated in 50 mM Tris HCl pH 7.0 and poured into a K 50/100 column (Pharmacia) according to the manufacturer's instructions. The bed volume of the column was approximately 1.3 liters. The Sample was loaded onto the column in a volume representing approximately 3 percent of the bed volume of the column. Proteins were eluted from the column in 50 mM Tris HCl pH 7.0 at a flow rate of approximately 2 ml per minute.
as §3
The samples were prepared in duplicate and incubated at 37° C. for 10, 20 and 30 minutes time periods. The enzymatic reaction was halted by the addition of 10 ul 500 mM EDTA.

[5] = pH optimum of alpha-amidating enzyme; type: biochemical; conditions: CA-77 cell tissue culture media enzyme
Description: 2. The optimum pH for the activity of the enzyme was determined to be pH 5.0-5.5 using N dansyl Tyr-Val-Gly as the substrate (FIG. XVI). However, due to the enhanced stability of the enzyme at neutral pH, it may be beneficial to carry out the amidation reaction at such pH.

## catalase
alpha-amidating enzyme [1]
  effect of addition on enzymatic activity: substantially increased

## ^125 I-D-Tyr-Val-Gly [125I-D-Tyr-Val-Gly]
alpha-amidating enzyme [2]; each time point (10, 20, 30 minutes), 37° C.
  fractional conversion relative to dansyl-Tyr-Val-Gly: approximately 1.55 times

## CC(C)[C@H](NC(=O)[C@H](N)Cc1ccc(O)cc1)C(=O)NCC(=O)O [D-Tyr-Val-Gly] (HELM PEPTIDE1{[dY].V.G}$$$$V2.0)
alpha-amidating enzyme [2]; comparison of Vmax
  maximal velocity relative to dansyl-Tyr-Val-Gly: approximately 1.48 times

## O=S(=O)([O-])[O-].[Cu+2] [copper sulfate]
alpha-amidating enzyme [1]
  effect of addition on enzymatic activity: substantially increased

B1: alpha-amidating enzyme (Rattus norvegicus) (protein)
chain: T1 sequence (P14925 36-976)
[3]
  Km: 37 µM
  Vmax: 31 pmol product/min/μl

B2: Peak IV enzyme (CA-77): higher molecular weight form from CA-77 medium, corresponds to peak III derived from MTC tumors (protein, UniProt P14925 36-976, looked up)
Peptidylglycine …: T1 sequence (P14925 36-976)
modifications: higher molecular weight form
[4]; CA-77 media, purified enzyme, pH 7.0
  specific activity: approximately 1500 mU/mg protein
[5]
  pH optimum: 5.0-5.5

B3: peak eluting at 190 mM NaCl: enzyme activity peak from Mono Q HR 5/5 at pH 8.0 eluting at 190 mM NaCl (protein, UniProt P14925 36-976, looked up)
Peptidylglycine …: T1 sequence (P14925 36-976)
modifications: Mono Q fraction
[4]; after Mono Q chromatography at pH 8.0, rat MTC tumor
  specific alpha-amidating activity: at least 80 mU/mg protein
